# Measurements taken from US20210246166A1 (Bayer, published 2021).
# Numbered stars: 1 amine (or outer) side, 2 acyl side, 3 side chain; on linkers, the order of the positions; unused ones are H or OH. Bridge positions count the residues as written; N and C are the ends. Square brackets hold non-standard residues; d marks the D form. Ends that are not written are not given here. X17 = 2‑((1S,2S)-1-(Amino)-2-methylbutyl)‑1,3‑oxazole‑4‑carboxylic acid, CC[C@H](C)[C@H](N[*:1])c1nc(C(=O)[*:2])co1; Pro(4-spirocPr) = O=C(O)[C@@H]1CC2(CC2)CN1; Oic = O=C(O)[C@@H]1C[C@@H]2CCCC[C@@H]2N1; NMeI = CC[C@H](C)[C@H](NC)C(=O)O; tBuAla = CC(C)(C)C[C@H](N)C(=O)O; Pen = CC(C)(S)[C@H](N)C(=O)O; NMeC = CN[C@@H](CS)C(=O)O; Orn = NCCC[C@H](N)C(=O)O
# T1: recombinant rat MASP1 active protease (amino acids 302-704, C-terminal His Tag) (rat, UniProt Q8CHN8 302-704)
# T1 sequence: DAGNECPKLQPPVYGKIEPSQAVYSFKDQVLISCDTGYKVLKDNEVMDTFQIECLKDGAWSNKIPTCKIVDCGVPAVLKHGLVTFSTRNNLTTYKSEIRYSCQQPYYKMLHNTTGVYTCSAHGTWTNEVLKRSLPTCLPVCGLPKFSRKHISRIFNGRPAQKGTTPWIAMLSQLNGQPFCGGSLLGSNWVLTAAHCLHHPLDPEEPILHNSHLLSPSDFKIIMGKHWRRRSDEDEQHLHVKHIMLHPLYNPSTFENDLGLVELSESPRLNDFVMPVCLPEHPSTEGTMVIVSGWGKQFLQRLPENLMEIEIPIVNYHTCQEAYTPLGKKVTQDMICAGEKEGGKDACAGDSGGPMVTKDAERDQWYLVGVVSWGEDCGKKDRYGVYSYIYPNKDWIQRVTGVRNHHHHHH
# B1: Example 12: AIC+SRS-((tBu)A)-PPI-(Pen)+IPD-OH (peptide)
# peptide: AICSRS[tBuAla]PPI[Pen]IPD-OH
# modifications: disulfide 3-11; N-terminus assumed
# SMILES: CC[C@H](C)[C@H](NC(=O)[C@H](C)N)C(=O)N[C@H]1CSSC(C)(C)[C@@H](C(=O)N[C@H](C(=O)N2CCC[C@H]2C(=O)N[C@@H](CC(=O)O)C(=O)O)[C@@H](C)CC)NC(=O)[C@H]([C@@H](C)CC)NC(=O)[C@@H]2CCCN2C(=O)[C@@H]2CCCN2C(=O)[C@H](CC(C)(C)C)NC(=O)[C@H](CO)NC(=O)[C@H](CCCNC(=N)N)NC(=O)[C@H](CO)NC1=O
# B2: Example 14: AIC+SRS-((tBu)A)-P-(Oic)-I-(Pen)+IPD-OH (peptide)
# peptide: AICSRS[tBuAla]P[Oic]I[Pen]IPD-OH
# modifications: disulfide 3-11; N-terminus assumed
# SMILES: CC[C@H](C)[C@H](NC(=O)[C@H](C)N)C(=O)N[C@H]1CSSC(C)(C)[C@@H](C(=O)N[C@H](C(=O)N2CCC[C@H]2C(=O)N[C@@H](CC(=O)O)C(=O)O)[C@@H](C)CC)NC(=O)[C@H]([C@@H](C)CC)NC(=O)[C@@H]2C[C@@H]3CCCC[C@@H]3N2C(=O)[C@@H]2CCCN2C(=O)[C@H](CC(C)(C)C)NC(=O)[C@H](CO)NC(=O)[C@H](CCCNC(=N)N)NC(=O)[C@H](CO)NC1=O
# B3: Example 17: AIC+SRSLP-((6S)-5-Azaspiro[2.4]heptane-6-carboxylic acid)-I-(Pen)+IPD-NH2 (peptide)
# peptide: AICSRSLP[Pro(4-spirocPr)]I[Pen]IPD-NH2
# modifications: disulfide 3-11; N-terminus assumed
# SMILES: CC[C@H](C)[C@H](NC(=O)[C@H](C)N)C(=O)N[C@H]1CSSC(C)(C)[C@@H](C(=O)N[C@H](C(=O)N2CCC[C@H]2C(=O)N[C@@H](CC(=O)O)C(N)=O)[C@@H](C)CC)NC(=O)[C@H]([C@@H](C)CC)NC(=O)[C@@H]2CC3(CC3)CN2C(=O)[C@@H]2CCCN2C(=O)[C@H](CC(C)C)NC(=O)[C@H](CO)NC(=O)[C@H](CCCNC(=N)N)NC(=O)[C@H](CO)NC1=O
# B4: Example 18: (Orn)-IC+SRS-((tBu)A)-PPI-(Pen)+IPD-OH (peptide)
# peptide: [Orn]ICSRS[tBuAla]PPI[Pen]IPD-OH
# modifications: disulfide 3-11; N-terminus assumed
# SMILES: CC[C@H](C)[C@H](NC(=O)[C@@H](N)CCCN)C(=O)N[C@H]1CSSC(C)(C)[C@@H](C(=O)N[C@H](C(=O)N2CCC[C@H]2C(=O)N[C@@H](CC(=O)O)C(=O)O)[C@@H](C)CC)NC(=O)[C@H]([C@@H](C)CC)NC(=O)[C@@H]2CCCN2C(=O)[C@@H]2CCCN2C(=O)[C@H](CC(C)(C)C)NC(=O)[C@H](CO)NC(=O)[C@H](CCCNC(=N)N)NC(=O)[C@H](CO)NC1=O
# B5: Example 19: RIC+SRS-((tBu)A)-PPI-((N-Me)C)+IPD-NH2 (peptide)
# peptide: RICSRS[tBuAla]PPI[NMeC]IPD-NH2
# modifications: disulfide 3-11; N-terminus assumed
# SMILES: CC[C@H](C)[C@H](NC(=O)[C@@H](N)CCCNC(=N)N)C(=O)N[C@H]1CSSC[C@@H](C(=O)N[C@H](C(=O)N2CCC[C@H]2C(=O)N[C@@H](CC(=O)O)C(N)=O)[C@@H](C)CC)N(C)C(=O)[C@H]([C@@H](C)CC)NC(=O)[C@@H]2CCCN2C(=O)[C@@H]2CCCN2C(=O)[C@H](CC(C)(C)C)NC(=O)[C@H](CO)NC(=O)[C@H](CCCNC(=N)N)NC(=O)[C@H](CO)NC1=O
# B6: Example 20: AIC+SRS-((tBu)A)-PPI-((N-Me)C)+(2-[(1S,2S)-1-(Amino)-2-methylbutyl]-1,3-oxazole-4-carboxylic acid)-D-NH2 (peptide)
# peptide: AICSRS[tBuAla]PPI[NMeC][X17]D-NH2
# modifications: disulfide 3-11; N-terminus assumed
# SMILES: CC[C@H](C)[C@H](NC(=O)[C@H](C)N)C(=O)N[C@H]1CSSC[C@@H](C(=O)N[C@H](c2nc(C(=O)N[C@@H](CC(=O)O)C(N)=O)co2)[C@@H](C)CC)N(C)C(=O)[C@H]([C@@H](C)CC)NC(=O)[C@@H]2CCCN2C(=O)[C@@H]2CCCN2C(=O)[C@H](CC(C)(C)C)NC(=O)[C@H](CO)NC(=O)[C@H](CCCNC(=N)N)NC(=O)[C@H](CO)NC1=O
# B7: Example 31: AIC+SRS-((tBu)A)-P-((6S)-5-Azaspiro[2.4]heptane-6-carboxylic acid)-I-(Pen)+IPD-OH (peptide)
# peptide: AICSRS[tBuAla]P[Pro(4-spirocPr)]I[Pen]IPD-OH
# modifications: disulfide 3-11; N-terminus assumed
# SMILES: CC[C@H](C)[C@H](NC(=O)[C@H](C)N)C(=O)N[C@H]1CSSC(C)(C)[C@@H](C(=O)N[C@H](C(=O)N2CCC[C@H]2C(=O)N[C@@H](CC(=O)O)C(=O)O)[C@@H](C)CC)NC(=O)[C@H]([C@@H](C)CC)NC(=O)[C@@H]2CC3(CC3)CN2C(=O)[C@@H]2CCCN2C(=O)[C@H](CC(C)(C)C)NC(=O)[C@H](CO)NC(=O)[C@H](CCCNC(=N)N)NC(=O)[C@H](CO)NC1=O
# B8: Example 35: KIC+SRS-((tBu)A)-PPI-((N-Me)C)+IPD-NH2 (peptide)
# peptide: KICSRS[tBuAla]PPI[NMeC]IPD-NH2
# modifications: disulfide 3-11; N-terminus assumed
# SMILES: CC[C@H](C)[C@H](NC(=O)[C@@H](N)CCCCN)C(=O)N[C@H]1CSSC[C@@H](C(=O)N[C@H](C(=O)N2CCC[C@H]2C(=O)N[C@@H](CC(=O)O)C(N)=O)[C@@H](C)CC)N(C)C(=O)[C@H]([C@@H](C)CC)NC(=O)[C@@H]2CCCN2C(=O)[C@@H]2CCCN2C(=O)[C@H](CC(C)(C)C)NC(=O)[C@H](CO)NC(=O)[C@H](CCCNC(=N)N)NC(=O)[C@H](CO)NC1=O
# B9: Example 36: AIC+SRSLP-((6S)-5-Azaspiro[2.4]heptane-6-carboxylic acid)-I-(Pen)+IPD-OH (peptide)
# peptide: AICSRSLP[Pro(4-spirocPr)]I[Pen]IPD-OH
# modifications: disulfide 3-11; N-terminus assumed
# SMILES: CC[C@H](C)[C@H](NC(=O)[C@H](C)N)C(=O)N[C@H]1CSSC(C)(C)[C@@H](C(=O)N[C@H](C(=O)N2CCC[C@H]2C(=O)N[C@@H](CC(=O)O)C(=O)O)[C@@H](C)CC)NC(=O)[C@H]([C@@H](C)CC)NC(=O)[C@@H]2CC3(CC3)CN2C(=O)[C@@H]2CCCN2C(=O)[C@H](CC(C)C)NC(=O)[C@H](CO)NC(=O)[C@H](CCCNC(=N)N)NC(=O)[C@H](CO)NC1=O
# B10: Example 37: AIC+SRS-((tBu)A)-PPIC+I-NH2 (peptide)
# peptide: AICSRS[tBuAla]PPICI-NH2
# modifications: disulfide 3-11; N-terminus assumed
# SMILES: CC[C@H](C)[C@H](NC(=O)[C@@H]1CSSC[C@H](NC(=O)[C@@H](NC(=O)[C@H](C)N)[C@@H](C)CC)C(=O)N[C@@H](CO)C(=O)N[C@@H](CCCNC(=N)N)C(=O)N[C@@H](CO)C(=O)N[C@@H](CC(C)(C)C)C(=O)N2CCC[C@H]2C(=O)N2CCC[C@H]2C(=O)N[C@@H]([C@@H](C)CC)C(=O)N1)C(N)=O
# B11: Example 38: RIC+SRS-((tBu)A)-PPI-((N-Me)C)+I-NH2 (peptide)
# peptide: RICSRS[tBuAla]PPI[NMeC]I-NH2
# modifications: disulfide 3-11; N-terminus assumed
# SMILES: CC[C@H](C)[C@H](NC(=O)[C@@H]1CSSC[C@H](NC(=O)[C@@H](NC(=O)[C@@H](N)CCCNC(=N)N)[C@@H](C)CC)C(=O)N[C@@H](CO)C(=O)N[C@@H](CCCNC(=N)N)C(=O)N[C@@H](CO)C(=O)N[C@@H](CC(C)(C)C)C(=O)N2CCC[C@H]2C(=O)N2CCC[C@H]2C(=O)N[C@@H]([C@@H](C)CC)C(=O)N1C)C(N)=O
# B12: Example 45: AIC+SRS-((tBu)A)-P-((6S)-5-Azaspiro[2.4]heptane-6-carboxylic acid)-I-(Pen)+IPD-NH2 (peptide)
# peptide: AICSRS[tBuAla]P[Pro(4-spirocPr)]I[Pen]IPD-NH2
# modifications: disulfide 3-11; N-terminus assumed
# SMILES: CC[C@H](C)[C@H](NC(=O)[C@H](C)N)C(=O)N[C@H]1CSSC(C)(C)[C@@H](C(=O)N[C@H](C(=O)N2CCC[C@H]2C(=O)N[C@@H](CC(=O)O)C(N)=O)[C@@H](C)CC)NC(=O)[C@H]([C@@H](C)CC)NC(=O)[C@@H]2CC3(CC3)CN2C(=O)[C@@H]2CCCN2C(=O)[C@H](CC(C)(C)C)NC(=O)[C@H](CO)NC(=O)[C@H](CCCNC(=N)N)NC(=O)[C@H](CO)NC1=O
# B13: Example 48: AIC+SRS-((tBu)A)-PPI-((N-Me)C)+IPD-NH2 (peptide)
# peptide: AICSRS[tBuAla]PPI[NMeC]IPD-NH2
# modifications: disulfide 3-11; N-terminus assumed
# SMILES: CC[C@H](C)[C@H](NC(=O)[C@H](C)N)C(=O)N[C@H]1CSSC[C@@H](C(=O)N[C@H](C(=O)N2CCC[C@H]2C(=O)N[C@@H](CC(=O)O)C(N)=O)[C@@H](C)CC)N(C)C(=O)[C@H]([C@@H](C)CC)NC(=O)[C@@H]2CCCN2C(=O)[C@@H]2CCCN2C(=O)[C@H](CC(C)(C)C)NC(=O)[C@H](CO)NC(=O)[C@H](CCCNC(=N)N)NC(=O)[C@H](CO)NC1=O
# B14: Example 49: (Orn)-IC+SRS-((tBu)A)-PPI-(Pen)+IPD-NH2 (peptide)
# peptide: [Orn]ICSRS[tBuAla]PPI[Pen]IPD-NH2
# modifications: disulfide 3-11; N-terminus assumed
# SMILES: CC[C@H](C)[C@H](NC(=O)[C@@H](N)CCCN)C(=O)N[C@H]1CSSC(C)(C)[C@@H](C(=O)N[C@H](C(=O)N2CCC[C@H]2C(=O)N[C@@H](CC(=O)O)C(N)=O)[C@@H](C)CC)NC(=O)[C@H]([C@@H](C)CC)NC(=O)[C@@H]2CCCN2C(=O)[C@@H]2CCCN2C(=O)[C@H](CC(C)(C)C)NC(=O)[C@H](CO)NC(=O)[C@H](CCCNC(=N)N)NC(=O)[C@H](CO)NC1=O
# B15: Example 59: Ac-G-((N-Me)I)-C+SRSLPPIC+IPD-OH (peptide)
# peptide: Ac-G[NMeI]CSRSLPPICIPD-OH
# modifications: disulfide 3-11
# SMILES: CC[C@H](C)[C@@H]1NC(=O)[C@@H]2CCCN2C(=O)[C@@H]2CCCN2C(=O)[C@H](CC(C)C)NC(=O)[C@H](CO)NC(=O)[C@H](CCCNC(=N)N)NC(=O)[C@H](CO)NC(=O)[C@@H](NC(=O)[C@H]([C@@H](C)CC)N(C)C(=O)CNC(C)=O)CSSC[C@@H](C(=O)N[C@H](C(=O)N2CCC[C@H]2C(=O)N[C@@H](CC(=O)O)C(=O)O)[C@@H](C)CC)NC1=O
# Target: T1, recombinant rat MASP1 active protease …
# Experiment: cell-based or functional assay
row,Binder,rat MASP1 IC50 [nM]
1,B1,13
2,B2,23
3,B3,31
4,B4,26
5,B5,23
6,B6,13
7,AICSRS[tBuAla]PPI[NMeC]IPD-NH2 (disulfide 3-11; also: HCl salt) [Example 30: AIC+SRS-((tBu)A)-PPI-((N-Me)C)+IPD-NH2 (HCl salt)],28
8,B7,22
9,B8,46
10,B9,24
11,B10,140
12,B11,12
13,B12,40
14,B13,51.5
15,B14,60
16,B15,250
